± gives the uncertainty stated by the source.
Assay: self-splicing fitness, log relative to wild type (ln ratio); higher = more splicing; Tetrahymena group I intron in knt gene, E. coli kanamycin selection, DiMSum; sequences stand for … in CUCUCU…GGAGGGAAAAGUUAUCAGGCAUGCACCUGGUAGCUAGUCUUUAAACCAAUAGAUUGCAUCGGUUUAAAAGGCAAGACCGUCAAAUUGCGGGAAAGGGGUCAACAGCCGUUCAGUACCAAGUCUCAGGGGAAACUUUGAGAUGGCCUUGCAAAGGGUAUGGUAAUAAGCUGACGGACAUGGUCCUAACCACGCAGCCAAGUCCUAAGUCAACAGAUCUUCUGUUGAUAUGGAUGCAGUUCACAGACUAAAUGUCGGUCGGGGAAGAUGUAUUCUUCUCAUAAGAUAUAGUCGGACCUCUCCUUAAUGGGAGCUAGCGGAUGAAGUGAUGCAACACUGGAGCCGCUGGGAACUAAUUUGUAUGCGAAAGUAUAUUGAUUAGUUUUGGAGUACUCGUGGUCG
Summary of the method: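 A randomised library covering all eight P1ex-region intron nucleotides was built with the intron in the knt kanamycin-resistance gene on pET-22b(+) and held in E. coli BL21(DE3). Cells were grown overnight at 37°C or 30°C on LB agar, with or without 25 μg/mL kanamycin, plus 100 μg/mL carbenicillin, 50 μM IPTG and 0.2% rhamnose, and pooled colonies were amplicon-sequenced on an Illumina HiSeq 2500. DiMSum fitness is the error-weighted combination of wild-type-normalised replicate fold changes, kanamycin versus none.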

| Sequence | self-splicing fitness (ln) (30 °C) | self-splicing fitness (ln) (37 °C) |
| --- | --- | --- |
| GUGAAGCAAUAUUACGUGAU | -1.97 ± 0.12 | -1.03 ± 0.14 |
| UCCUAGCAAUAUUACGACGU | -0.558 ± 0.098 | -0.499 ± 0.11 |
| UUCAAGCAAUAUUACGGACG | -1.48 ± 0.15 | -0.868 ± 0.18 |
| GCUUAGCAAUAUUACGCGGU | -3.52 ± 0.2 | -3.42 ± 0.28 |
| GAGUAGCAAUAUUACGAUCA | 0.0664 ± 0.19 | -0.761 ± 0.21 |
| GGCGAGCAAUAUUACGUCCU | -2.41 ± 0.1 | -1.28 ± 0.09 |
| UCAUAGCAAUAUUACGUGAU | -3.82 ± 0.17 | -2.62 ± 0.2 |
| ACGGAGCAAUAUUACGUGGU | -3.91 ± 0.4 | -1.08 ± 0.2 |
| AAACAGCAAUAUUACGAUUC | -2.04 ± 0.1 | 0.0665 ± 0.091 |
| GGUAAGCAAUAUUACGCAAG | -3.39 ± 0.26 | -2.03 ± 0.22 |
| CAUCAGCAAUAUUACGUAGC | -3.39 ± 0.21 | -1.98 ± 0.19 |
| CCCUAGCAAUAUUACGCGGC | -1.47 ± 0.21 | -2.36 ± 0.41 |
| AAUCAGCAAUAUUACGGUUC | -2.32 ± 0.11 | -1.91 ± 0.17 |
| AACAAGCAAUAUUACGAUUC | -1.61 ± 0.11 | -0.551 ± 0.12 |
| UUCUAGCAAUAUUACGUCCA | -2.13 ± 0.19 | -0.134 ± 0.17 |
| UACUAGCAAUAUUACGGGGU | -4.05 ± 0.19 | -2.71 ± 0.2 |
| AUAAAGCAAUAUUACGUUGG | -2.08 ± 0.11 | -2.15 ± 0.15 |
| AUCUAGCAAUAUUACGUAUG | -2.41 ± 0.13 | -1.55 ± 0.17 |
| UUGUAGCAAUAUUACGUUUU | -2.52 ± 0.24 | -1.98 ± 0.17 |
| ACAAAGCAAUAUUACGAUUA | -1.37 ± 0.11 | -0.593 ± 0.11 |
| AAGGAGCAAUAUUACGCUCG | -0.454 ± 0.13 | -0.814 ± 0.17 |
| ACGUAGCAAUAUUACGUUAG | -3.99 ± 0.16 | -2.13 ± 0.15 |
| GUACAGCAAUAUUACGGAGG | -3.92 ± 0.34 | -2.92 ± 0.44 |
| CCCGAGCAAUAUUACGAGCC | -2.46 ± 0.2 | -2.12 ± 0.28 |

| Sequence | self-splicing fitness (ln) (30 °C) | self-splicing fitness (ln) (37 °C) |
| --- | --- | --- |
| AAUCAGCAAUAUUACGUGGG | -2.12 ± 0.11 | -1.09 ± 0.12 |
| CCGAAGCAAUAUUACGUAAA | -3.14 ± 0.22 | -2.12 ± 0.33 |
| UUUCAGCAAUAUUACGUUCU |  | -1.89 ± 0.21 |
| UUCUAGCAAUAUUACGUUGG | -2.65 ± 0.24 |  |
| UAUAAGCAAUAUUACGACAA | 0.0108 ± 0.14 | -0.202 ± 0.17 |
| GCGCAGCAAUAUUACGUGGA | -1.48 ± 0.098 | -0.745 ± 0.098 |
| UGGUAGCAAUAUUACGAUUC | -2.63 ± 0.24 | -2.05 ± 0.26 |
| GGUUAGCAAUAUUACGCGGC | -2.62 ± 0.29 |  |
| CCUGAGCAAUAUUACGACCA | -2.89 ± 0.44 | -2.06 ± 0.38 |
| UGAUAGCAAUAUUACGUUUG | -1.26 ± 0.073 | 0.0201 ± 0.099 |
| CAACAGCAAUAUUACGUUCG | -0.959 ± 0.051 | -0.171 ± 0.065 |
| UCCUAGCAAUAUUACGGUUC | -3.05 ± 0.2 | -1.55 ± 0.17 |
| CUCCAGCAAUAUUACGUCGA | -4.42 ± 0.27 | -2.73 ± 0.17 |
| GAGAAGCAAUAUUACGUCCC | -0.258 ± 0.28 | -0.337 ± 0.29 |
| GGAAAGCAAUAUUACGUAGA | -0.977 ± 0.1 | -1.4 ± 0.17 |
| CGGCAGCAAUAUUACGGAGA | -1.63 ± 0.3 | -1.62 ± 0.29 |
| GUGAAGCAAUAUUACGUGGA | -3.07 ± 0.13 | -1.24 ± 0.15 |
| GGGUAGCAAUAUUACGUGGA | -3.45 ± 0.2 | -2.02 ± 0.097 |
| CACGAGCAAUAUUACGAAUU | -4.81 ± 0.41 | -2.25 ± 0.21 |
| GAGUAGCAAUAUUACGGACU | -0.25 ± 0.072 | -0.487 ± 0.096 |
| GUGGAGCAAUAUUACGCACA | -0.729 ± 0.22 | -0.814 ± 0.33 |
| GACUAGCAAUAUUACGUUCA | -0.661 ± 0.11 | -0.533 ± 0.12 |
| UUGCAGCAAUAUUACGGCCA | -0.118 ± 0.16 | 0.347 ± 0.19 |
| CUACAGCAAUAUUACGUCGC | -4.05 ± 0.3 | -2.11 ± 0.23 |
